# Source: article PMC11544220
# Target: Mycobacterium tuberculosis dUTPase lacking the mycobacteria-specific loop A133-S137 (MtDUT^Δloop) (Mycobacterium tuberculosis) (UniProt P9WNS5)
# Assay: crystal structure
substance,measurement,value
Mycobacterium tuberculosis dUTPase lacking the mycobacteria-specific loop A133-S137 (MtDUT^Δloop) (from UniProt P9WNS5 1-154) (enzyme),stoichiometry N (subunits in the oligomer),3
